In the RNAGym collection of RNA variant scans (doi:10.7554/elife.80360):

B1: HDV Ribozyme (parent)
chain: GGCCGGCAUGGUCCCAGCCUCCUCGCUGGCGCCGGCUGGGCAACAUUCCGAGGGGACCGUCCCCUCGGUAAUGGCGAAUGGGACCCA

Variants of: B1
Test: self-cleavage, relative activity (ratio to wild type); higher = more cleavage; co-transcriptional

Variant	self-cleavage
A45U G74A	0.513
A45U G53U	0.997
A45C A51C	0.875
A45G A87G	0.868
A45G A87C	1.11
U46C G52U	1.05
U46A C85A	0.7
U46A C85G	0.575
C44U G55C	0.882
C44U G55A	0.831
U46C C64U	0.725
U46C C64G	0.875
A45C A56U	0.629
A45G A77G	0.867
A45G A77C	0.18
U46C C61G	0.734
U46C C61U	0.796
A45U A78G	0.571
U46A A78G	0.277
U46A A78U	0.156
A45C G50U	0.494
A45C G50A	0.785
A45G C57U	1.11
U46A C63G	0.723

Variant	self-cleavage
A45G G68C	0.767
A45G U72G	0.68
A45U G55A	0.594
A45U U72G	0.755
A45C G53A	0.564
A45C G53U	0.712
U46C G68A	0.415
A45C G52C	0.752
A45C G52U	0.697
A45C G52A	0.684
A45G G73U	0.415
A45G G73C	0.388
U46C A87U	0.689
U46C A87C	0.91
A45C C64A	0.426
A45C C64U	0.73
U46C G74U	0.554
U46C G74A	0.48
U46A G81A	0.271
A45C C49G	0.492
A45C C49U	0.831
U46A G82A	0.156
C44U G52C	0.806
C44U G52A	0.831

Variant	self-cleavage
C44U G81C	0.0923
C44U G81U	0.212
U46A U65C	0.65
U46A U65G	0.675
U46A U65A	0.914
A45G C84A	0.587
A45G C84U	0.658
A45G C84G	0.623
A45G G67C	0.54
A45C A77C	0.277
A45U A77G	0.609
A45U A77U	0.322
A45U A77C	0.155
U46C G55C	0.554
U46C G55A	0.878
A45C C85U	0.437
A45C C85A	0.437
A45C C66U	0.8
A45C C66A	0.684
U46C G54U	0.786
U46C G54C	1.04
U46A G76A	0.831
U46A G54C	0.706
U46C A83U	0.554

Variant	self-cleavage
A45G U79A	0.755
A45G U79C	0.674
U46A G67C	0.76
U46A C84A	0.629
U46A C84U	0.397
A45C G59C	0.696
A45C G59A	0.704
A45U U47G	0.867
A45U U47A	0.973
A45U U47C	0.772
U46C G59U	0.962
U46C G59A	0.776
U46C C58A	0.554
A45G C86G	0.95
A45G C86A	0.639
C44U G54A	0.872
U46C A78U	0.302
A45C U46C	0.403
A45C U46G	0.554
C44U G82C	0.0723
A45U G80U	0.153
A45U A51C	0.796
A45U A51G	0.965
U46C A77C	0.375

Variant	self-cleavage
U46C A77U	0.104
U46C A77G	0.516
A45C U65A	0.87
A45C U65C	0.646
U46A C61G	0.808
A45U C62A	0.791
A45U C62U	0.923
A45C U47A	0.911
U46C C84A	0.723
U46C C84G	0.237
A45U C63U	0.856
A45U C63A	0.784
A45G C48G	1.23
A45G C48U	0.978
A45C A71G	1.11
A45C A71U	1.09
U46A A70G	1.01
U46A A70C	0.831
U46A A70U	0.587
A45U A56U	0.831
A45U A56G	0.806
C44U G80C	0.242
A45C C57U	0.73
A45C C57A	0.504

Variant	self-cleavage
A45C A87U	0.531
A45U U65C	1.04
A45U U65A	0.618
C44U G59C	0.997
U46C C49G	0.554
U46C C49U	0.73
A45G G76A	0.959
A45G G76C	1.07
A45C G67U	0.604
A45C C58G	0.724
A45C G82U	0.397
A45C G82C	0.256
U46A U72A	0.615
U46A U72G	0.65
U46A U72C	0.655
A45C U60G	0.63
A45C U60A	0.883
A45C U60C	0.573
U46A C62A	0.543
U46A C62U	0.712
U46A G68A	0.65
U46A G68U	0.657
C44U G68A	0.681
C44U G68C	0.529

Variant	self-cleavage
C44U G68U	0.607
A45U A83C	0.0875
A45U A83U	0.128
A45C G54U	0.95
A45C G54C	0.653
C44U U46G	0.712
C44U U46C	0.571
U46A U47G	0.369
A45U U69A	0.77
U46C C66U	0.886
A45C C86G	0.465
A45C C86A	0.95
A45G C58U	0.906
A45G C58G	1.14
C44U G50U	0.772
C44U G50A	0.855
C44U G50C	0.437
A45C C75A	0
A45C C75U	0.201
A45C C75G	0.237
A45G C61A	1.15
A45G C61G	0.467
A45G C61U	0.888
